# T1: cynomolgus monkey CTLA4 on stably transfected CHO-K1 cells (human CTLA4 cDNA with S13N, I17T and L105M) (human backbone with cynomolgus monkey …, UniProt P16410 36-223)
# T1 chain: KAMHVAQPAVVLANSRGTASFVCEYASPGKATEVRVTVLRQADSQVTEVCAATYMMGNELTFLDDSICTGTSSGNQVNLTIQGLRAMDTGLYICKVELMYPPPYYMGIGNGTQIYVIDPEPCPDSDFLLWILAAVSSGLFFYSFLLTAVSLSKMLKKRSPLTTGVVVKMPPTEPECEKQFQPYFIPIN
# How the values were obtained:
# [1] = target: T2, rhPD1-Fc (fusion protein of the extracellular part of human PD-1 and mouse Fc gamma 1, R&D Systems Cat … (human; mouse, UniProt Q15116 25-170; P01868 98-324 = IgG part, limits assumed); test: competition ELISA, coated PD-1; blocked ligand B7-H1-biotin
# T2 construct: extracellular domain;domain: Fc; bought; also called PD-1 ectodomain
# Procedure: (§1) In short, 2 μg/ml PD-1 ectodomain (R&D Systems Cat #1086-PD, Minneapolis, US) was immobilized on maxisorp microtiter plates (Nunc, Wiesbaden, Germany) and free binding sites were blocked using 4% Marvel in PBS.
# [2] = target: T2, rhPD1-Fc (fusion protein of the …); test: competition ELISA, coated PD-1; blocked ligand PD-L2-biotin
# Procedure: as §1
# [3] = target: T3, HuCTLA4-HuIgG1 (fusion protein of the extracellular part of human CD152 and human Fc gamma 1, CTLA4-Ig) (human, UniProt P16410 36-161); test: SPR, Biacore T100, CTLA4-Ig amine-coupled
# T3 construct: extracellular domain; also called CTLA4-hFc; CTLA4-Fc; not shown: human Fc gamma 1
# Procedure: Affinity constants (Kd) of individual purified Nanobody clones were determined by surface plasmon resonance on a Biacore T100 instrument. […] Remaining reactive groups were inactivated using ethanolamine. […] Each sample was injected for 2 min at a flow rate of 45 μl/min to allow for binding to chip-bound antigen. Next, binding buffer without Nanobody was sent over the chip at the same flow rate to allow for dissociation of bound Nanobody. After 2 min, remaining bound analyte was removed by injecting regeneration solution (10 mM Glycine/HCl pH 1.5). Binding curves obtained at different concentrations of Nanobody were used to calculate KD values. For some clones, only a single undetermined concentrations of Nanobody was injected.
# [4] = target: T4, human CTLA4 (Y201 mutated to valine) on stably transfected CHO-K1 cells (human, UniProt P16410 36-223); test: FACS, direct binding titration on human CTLA4 CHO cells (head prints IC50)
# T4 construct: whole, on cells; the mutation of the intracellular position Y201 keeps the protein on the membrane; also called human CTLA4 overexpressing CHO cells; human CTLA4 transfectant
# Procedure: Binding of putative CTLA4 reactive Nanobodies clones was detected using unlabeled anti-c-myc tag mouse monoclonal antibody 9E10, followed by a phycoerythrin conjugated F(ab′)2 derived from goat-anti-mouse IgG (human and bovine crossabsorbed), and read on a BD FACSarray instrument. Dead cells were excluded from the analysis by gating out TOPRO3 vital dye positive scoring cells. Binding of the Nanobodies to cells was evaluated in BD FACSarray control software as PE channel histograms.
# [5] = target: T1, cynomolgus monkey CTLA4 on stably …; test: FACS, direct binding titration on cyno CTLA4 CHO cells (head prints IC50)
# [6] = target: T4, human CTLA4 (Y201 mutated to valine) on …; test: FACS competition, human CTLA4 CHO cells; blocked ligand CD80-Fc
# From the text: The potency of selected Nanobodies to inhibit the interaction of CTLA4 with CD80 was also ranked using FACS based screening method. […] This concentration was previously determined to be the minimal amount required to saturate all CD80 binding sites on both human and cyno CTLA4 expressing CHO cell clones in the absence of any CTLA4 interaction blocking proteins. […] Dead cells were stained by including TOPRO3 vital dye in the final resuspension buffer. All samples were read on a BD FACSarray instrument. Dead cells were excluded from the analysis by gating out TOPRO3 vital dye positive scoring cells.
# [7] = target: T5, rhB7-H2-Fc (fusion protein of the extracellular part of human B7-H2 (ICOSL) and mouse Fc gamma 1, R&D Systems … (human; mouse, UniProt O75144 19-256; P01868 98-324 = IgG part, limits assumed); test: competition ELISA, coated B7-H2; blocked ligand ICOS-biotin
# T5 construct: extracellular domain;domain: Fc; bought; also called B7-H2 ectodomain
# [8] = target: T6, HuCD28-HuIgG1 (fusion protein of the extracellular part of human CD28 and human Fc gamma 1, R&D Systems Cat … (human, UniProt P10747 19-152; P01857 100-330 = IgG part); test: competition ELISA, CD28-hFc in solution; blocked ligand coated B7-1-muFc
# T6 construct: extracellular domain;domain: Fc; bought; also called CD28-Ig; hCD28-Fc
# [9] = target: T7, human CD28 on Jurkat cells (human, UniProt P10747 19-220); test: FACS competition, Jurkat cells; blocked ligand CD80-Fc
# T7 construct: whole, on cells; also called native form of the CD28 antigen; cell expressed CD28
# From the text: The potency of cell-expressed CD28 binding Nanobodies to inhibit the interaction of CD28 with either CD80 or CD86 was also ranked using FACS based screening method. […] Dead cells were stained by including TOPRO3 vital dye in the final resuspension buffer. All samples were read on a BD FACSarray instrument. Dead cells were excluded from the analysis by gating out TOPRO3 vital dye positive scoring cells.
# [10] = target: T8, rhB7H1-Fc (fusion protein of the extracellular part of human B7-H1 (PD-L1) and mouse Fc gamma 1, R&D Systems … (human; mouse, UniProt Q9NZQ7 19-238; P01868 98-324 = IgG part, limits assumed); test: ELISA, coated B7-H1
# T8 construct: extracellular domain;domain: Fc; bought; also called B7-H1 ectodomain
# [11] = target: T9, rhPDL2-Fc (fusion protein of the extracellular part of human PD-L2 and mouse Fc gamma 1, R&D Systems Cat … (human; mouse, UniProt Q9BQ51 20-220; P01868 98-324 = IgG part, limits assumed); test: competition ELISA, coated PD-L2; blocked ligand PD-1-biotin
# T9 construct: extracellular domain;domain: Fc; bought; also called PD-L2 ectodomain
# Procedure: In short, 2 μg/ml PD-L2 ectodomain (R&D Systems, Minneapolis, US, Cat #1224-PL) was immobilized on maxisorp microtiter plates (Nunc, Wiesbaden, Germany) and free binding sites were blocked using 4% Marvel in PBS. Next, 0.5 μg/ml of PD-1 was preincubated with a dilution series of purified Nanobody.
binder,measurement,setting,value
"102C3 (VHH, Nanobody against PD-1) VHH: EVQLVESGGGLVQAGKSLRLSCAASGSIFSIHAMGWFRQAPGKEREFVAAITWSGGITYYEDSVKGRFTISRDNAKNTVYLQMNSLKPEDTAIYYCAADRAESSWYDYWGQGTQVTVSS",IC50 (read off the curve),[1],~10 nM
same,IC50 (read off the curve),[2],~10 nM
"102C12 (VHH, Nanobody against PD-1) VHH: EVQLVESGGGLVQAGGSLRLSCAASGSIASIHAMGWFRQAPGKEREFVAVITWSGGITYYADSVKGRFTISRDNAKNTVYLQMNSLKPEDTAIYYCAGDKHQSSWYDYWGQGTQVTVSS",IC50 (read off the curve),[1],~80 nM
same,IC50 (read off the curve),[2],~70 nM
"102E8 (VHH, Nanobody against PD-1) VHH: EVQLVESGGGLVQAGGSLGLSCAASGSIFSINAMAWFRQAPGKEREFVALISWSGGSTYYEDSVKGRFTISRDNAKNTVYLQMNSLKPEDTAIYYCAADRVDSNWYDYWGQGTQVTVSS",IC50 (read off the curve),[1],~200 nM
same,IC50 (read off the curve),[2],~200 nM
"102E2 (VHH, Nanobody against PD-1) VHH: EVQLVESGGGLVQAGGSLRLSCAASGSISSIHAMGWFRQAPGKEREFVAAITWSGGITYYADSLKGRFTISRDNAKNTGYLQMNSLKPEDTAIYYCAADRAQSSWYDYWGQGTQVTVSS",IC50 (read off the curve),[1],~70 nM
same,IC50 (read off the curve),[2],~70 nM
"4CTLAPMP02F2 (VHH, short label tied to the entry by the clone code only; not shown: C-terminal c-myc tag and His6 tag) VHH: EVQLMESGGGLVQTGGSLRLSCAASGRTFSNYTMGWFRQAPGKDREFVAAISRSGSLKAYADSVKGRFTPSRDNAKKMAYLQMNSLKPEDTAVYYCAAAPVPWGTRPSLFPYDSWGQGTQVTVSS",Kd,[3],0.638 nM
same,koff,[3],0.00391 s⁻¹
same,kon,[3],6.13e+06 M⁻¹ s⁻¹
same,IC50,[4],2.56 nM
same,IC50,[5],2.42 nM
same,IC50 (read off the curve),[6],~10 nM
"4CTLAPMP02G2 (VHH, short label tied to the entry by the clone code only; not shown: C-terminal c-myc tag and His6 tag) VHH: EVQLVESRGGLVQTGGSLRLSCAASGRTFSNYTMGWFRQAPGKDREFVAAISRSGSLKSYADSVKGRFTISRDNAKKMAYLQMNSLKPEDTAVYYCAAAPVPWGTRPSFFTYDSWGQGTQVTVSS",Kd,[3],0.478 nM
same,koff,[3],0.00355 s⁻¹
same,kon,[3],7.42e+06 M⁻¹ s⁻¹
same,IC50,[4],2.28 nM
same,IC50,[5],2.08 nM
same,IC50 (read off the curve),[6],~8 nM
"95A6 (VHH, Nanobody against B7-H2 (ICOSL)) VHH: EVQLVESGGGLVQAGGSLRLSCALSGRAVSIAATAMGWYRQAPGKQRELVAARWSGGSIQYLDSVKGRFTISRDNAKNTVYLQMNSLTPEDTAVYYCNTLPWRANYSGQGTQVTVSS",IC50 (read off the curve),[7],~10 nM
"70F9 (VHH, Nanobody against CD28) VHH: EVQLVESGGGLVQAGGSLRLSCAASGRTFSSYVMGWFRQAPGKEREFVAAHSWYADYADSVKGRFSISRDNDKNTVYLQMNSLKPEDTAVYYCAASRSQGRRYANSYESWGQGTQVTVSS",IC50 (read off the curve),[8],~100 nM
"70F10 (VHH, Nanobody against CD28) VHH: EVQLVESGGGLVQAGGSLRLSCAASGFTFDDYAIGWFRQAPGKEREGVACVSNSDGSTYYANSVKGRFTISSDNAKNTVYLQMNSLKPEDTAVYYCAADSRCWGWGMLHMRHGDRGQGTQVTVSS",IC50 (read off the curve),[8],~200 nM
"65B2 (VHH, Nanobody against CD28) VHH: EVQLVESGGGLVQAGGSLRLSCATSGRTFSSDVMGWFRQAPGKEREFVAAINRSGHSTSYTGSVKGRFAISRDNTKNTVYLQMNSLKPEDTAVYYCALRLWSDYLAQKSGEYNYWGQGTQVTVSS",IC50 (read off the curve),[9],~200 ng/well
same,IC50 (read off the curve),[8],~200 nM
"95F8 (VHH, Nanobody against B7-H2 (ICOSL)) VHH: EVQLVESGGGLVQAGGSLRLSCAASGIAFSIDIMDWYRQAPGKERELVATISGGGSTNYADSVKGRFIVSRDNAKNILYLQMNSLKPDDTAVYYCNARRLIYGRTVYWGQGTQVTVSS",IC50 (read off the curve),[7],~8 nM
"95B11 (VHH, Nanobody against B7-H2 (ICOSL)) VHH: EVQLVESGGGLVQPGGSLRLSCAASRSISSFNLLGWYRQAPGKQRELVAHLLSGGSTVYPDSVKGRFTVSRDNTKNTVYLQMNSLKPEDTAVYYCNAIAPALGSSWGQGTQVTVSS",IC50 (read off the curve),[7],~10 nM
104E12 (VHH) VHH: EVQLVESGGGLVQPGGSLRLSCAASGFTFDYYAIGWFRQAPGKAREGVSCISGGDNSTYYADSVKGRFTISRDNAKNTVYLQMNSLKPEDTAVYYCATGGWKYCSGYDPEYIYWGQGTQVTVSS,EC50 (read off the curve),[10],~10 nM
"103F6 (VHH, Nanobody against PD-L2) VHH: EVQLVESGGGLVQPGGSLRLSCAASGFTFSTYTMIWLRRAPGKGFEWVSTIDKDGNTNYVDSVKGRFAVSRDNTKNTLYLQMNSLKPEDTAMYYCTKHGSSARGQGTRVTVSS",IC50 (read off the curve),[11],~7 nM
"103E2 (VHH, Nanobody against PD-L2) VHH: EVQLVESGGGLVQAGGSLRLSCAASGSTFSNYVSNYAMGWGRQAPGTQRELVASISNGDTTNYADSVKGRFTISRDNAKNTVYLQMNSLKPEDTAVYYCFEHQVAGLTWGQGTQVTVSS",IC50 (read off the curve),[11],~10 nM
"95H8 (VHH, Nanobody against B7-H2 (ICOSL)) VHH: EVQLVESGGGLVQTGGSLRLSCAASSSTSTSSIDVMGWYRQSPGKQRELVASISSFGSTYYADSVKGRFIISRDNAKNTVNLQMNNLKLEDTAVHFCNLRRLSPPPLLDYWGQGTQVTVSS",IC50 (read off the curve),[7],~10 nM

# Source: patent publication US20240182575A1 (Ablynx, published 2024)
